According to patent US9731031B2, “Conjugate comprising oxyntomodulin and an immunoglobulin fragment, and use thereof” (Hanmi Science Co., Ltd., dated 2017):
Where no end group is shown, it is not given here. [ ]: non-standard residue; d: D form. The star is where a group is joined. Acetyl(2-(4-imidazolyl)) = O=C(Cc1c[nH]cn1)*; Aib = CC(C)(N)C(=O)O

B1: oxyntomodulin derivative of SEQ ID NO. 6 (peptide)
peptide: HGEGTFTSDLSRQMEEEAVRLFIEWAAHSQGTFTSDYSKYLD
modifications: not fully specified (residue 1, N-terminus); also: N-terminal CA (4-imidazoacetyl), whether it replaces His1 not given here
B2: oxyntomodulin derivative of SEQ ID NO. 17 (peptide)
peptide: HSQGTFTSDYSRYLDEEAVRLFIEWIRNTKRNRNNIA
modifications: not fully specified (residue 1, N-terminus); also: N-terminal CA (4-imidazoacetyl), whether it replaces His1 not given here
B3: oxyntomodulin derivative of SEQ ID NO. 11 (peptide)
peptide: HGEGTFTSDLSRQMEEEAVRLFIEWAAHSQGTFTSDYSRYLDK
modifications: not fully specified (residue 1, N-terminus); also: N-terminal CA (4-imidazoacetyl), whether it replaces His1 not given here

Legend:
human glucagon receptor = human glucagon receptor (human, UniProt P47871); assay: cell-based or functional assay
human GLP-1 receptor = human GLP-1 receptor (human, UniProt P43220); assay: cell-based or functional assay

Binder	EC50 (nM), cAMP (human glucagon receptor)	EC50 (nM), cAMP (human GLP-1 receptor)
B1	> 1000 nM	
[Acetyl(2-(4-imidazolyl))]SQGTFTSDYSRYLDEEAVRLFIEWIRNGGPSSGAPPPSK (also: N-terminal CA (4-imidazoacetyl), whether it replaces His1 not given here) [oxyntomodulin derivative of SEQ ID NO. 18]	> 1000 nM	
H[Aib]QGTFTSDYSKYLDEKRAKEFVQWLMNTC (also: ring between residues marked, places not visible) [oxyntomodulin derivative of SEQ ID NO. 24]		1.43 nM
B2	> 1000 nM	
B3	> 1000 nM	> 1000 nM
Y[Aib]QGTFTSDYSKYLDEKRAKEFVQWLMNTC (also: ring marking not visible) [oxyntomodulin derivative of SEQ ID NO. 34]	1 nM	12.5 nM
[Acetyl(2-(4-imidazolyl))]SQGTFTSDLSRQLEEEAVRLFIEWLMNK (also: N-terminal CA (4-imidazoacetyl), whether it replaces His1 not given here) [oxyntomodulin derivative of SEQ ID NO. 8]	> 1000 nM	
H[Aib]QGTFTSDYSKYLDEKRAKEFVQWLMNTC (also: ring between residues marked, places not visible) [oxyntomodulin derivative of SEQ ID NO. 25]		1.9 nM
HSQGTFTSDYSRYLDEEAVELFIEWLMNTK [oxyntomodulin derivative of SEQ ID NO. 13]	> 1000 nM	> 1000 nM
[Acetyl(2-(4-imidazolyl))][Aib]QGTFTSDYSKYLDEKRAKEFVQWLMNTC (also: ring between residues marked, places not visible) [oxyntomodulin derivative of SEQ ID NO. 32]	17.3 nM	14.2 nM
H[Aib]QGTFTSDYAKYLDEKRAKEFVQWLMNTC (also: ring marking not visible) [oxyntomodulin derivative of SEQ ID NO. 33]	80.2 nM	2.2 nM
H[Aib]QGTFTSDYSKYLDEKRAKEFVCWLMNT (also: ring between residues marked, places not visible) [oxyntomodulin derivative of SEQ ID NO. 23]	5.8 nM	2.46 nM
H[Aib]QGTFTSDYSKYLDEKRAKEFVQWLMNT (also: ring between residues marked, places not visible) [oxyntomodulin derivative of SEQ ID NO. 28]	0.3 nM	
[Acetyl(2-(4-imidazolyl))]SQGTFTSDYSKYLDERRAQDFVAWLKNTGPSSGAPPPS (also: N-terminal CA (4-imidazoacetyl), whether it replaces His1 not given here) [oxyntomodulin derivative of SEQ ID NO. 3]		> 1000 nM
